Data taken from the supplement of paper PMC12042874.
± gives the uncertainty stated by the source.

test: amyloid nucleation score (Sup35N fusion, yeast selection) (log enrichment); library NNK1; higher = more nucleation; inactive = no reads after selection
Procedure, shortened: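 On medium lacking adenine and uracil, psi-negative yeast expressing peptides of 20 random codons fused to Sup35N were grown 7 days at 30°C after a 24-hour induction with 100 μM copper sulfate. Illumina sequencing of input and output plasmid inserts gave the reads, and sequences under 100 input reads were excluded. The nucleation score is the DiMSum log enrichment of output over input reads, centred on the mode score of non-aggregating sequences.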

Compared with MYASRNNFNSFTGYRYSSVS, MYCITDEVNRYKCCKTGKEF is higher in amyloid nucleation score: -0.077 ± 0.21 for the first, 0.634 ± 0.32 for the second.

MYETWFTFRWKLTDI and MYGLLEDERTVCQWKMICVV are within error of each other in amyloid nucleation score: -0.007 ± 0.39 for the first, -0.157 ± 0.69 for the second.

MYISYLYFCYKRSMYFG and MYLCVRLGSIKYFSGVLWS are within error of each other in amyloid nucleation score: 0.718 ± 1.1 for the first, 0.056 ± 1.4 for the second.

MYMIWEQGKPCSILDTHTVT and MYVFRVLASSVWKSMMLFDL are within error of each other in amyloid nucleation score: 0.598 ± 0.26 for the first, 0.146 ± 0.23 for the second.

MYWESSSHEHVSEKPVRLIL and NADDISVRTGNTQESLSW are within error of each other in amyloid nucleation score: 1.07 ± 0.84 for the first, 0.275 ± 1.2 for the second.

NADVTCVISGLRKTYCVSDD and NAPLEWSSGHASQIVLGHVT are within error of each other in amyloid nucleation score: 0.577 ± 0.64 for the first, -0.177 ± 0.69 for the second.

NATNLENQKFTEDALKSPGW and NAVSIRGLRVDRQN are within error of each other in amyloid nucleation score: -0.037 ± 0.71 for the first, 0.112 ± 0.55 for the second.

Going from NCAFVAS to NCGGRVSG, the amyloid nucleation score rises from -0.019 ± 0.34 to 8.076 ± 0.06.

Compared with NCIVFVSPASTKDCKWGAAS, NCLRNWHKFI is lower in amyloid nucleation score: 1.66 ± 0.35 for the first, -0.845 ± 0.7 for the second.

NCRGKREMGRKSSRSLVHGW and NCYMT are within error of each other in amyloid nucleation score: -0.039 ± 0.49 for the first, 0.386 ± 0.31 for the second.

Going from NDACYWEFCYADKLYFEWWF to NDDVSVSVSWPDMEVRWK, the amyloid nucleation score falls from 1.04 ± 0.44 to -0.179 ± 0.29.

NDRKYLCMMRILMSNRRVLQ and NDVPLLWVISASCG are within error of each other in amyloid nucleation score: 0.553 ± 0.3 for the first, 1.02 ± 0.44 for the second.

NDYFY and NEIYKTA are within error of each other in amyloid nucleation score: -0.598 ± 1.4 for the first, -1.12 ± 2.7 for the second.

Going from NESRM to NFCLWHNWYVMSVLERGD, the amyloid nucleation score rises from 1.08 ± 0.58 to 7.893 ± 0.071.

Going from NFDSELFSPLMISDVREFTK to NFFDLLYFL, the amyloid nucleation score falls from 1.62 ± 0.47 to 0.175 ± 0.82.

NFHDEV and NFRGLRLSKIYLLHHAGNLW are within error of each other in amyloid nucleation score: -1.22 ± 1.5 for the first, 0.533 ± 0.47 for the second.

NFSHHSIYGHVPRPEEQNPM and NFVARSLLPNILAGLRGTGC are within error of each other in amyloid nucleation score: 0.481 ± 1 for the first, -0.139 ± 0.59 for the second.

Going from NFVFGHNGGACSYVGLLM to NFVGFL, the amyloid nucleation score falls from 1 ± 0.7 to -0.33 ± 0.58.

NGADTSSQAF and NGCLITSWDYCSCRAVYQLT are within error of each other in amyloid nucleation score: -0.182 ± 1.3 for the first, -0.602 ± 0.39 for the second.

Compared with NGHSVASSVDAVMLCRYRGK, NGNEYMVHRHADKWNTGQYR is higher in amyloid nucleation score: 0.688 ± 0.69 for the first, 5.83 ± 0.084 for the second.

NGQRDIEYLSLFSPVGTMNS and NGSADNIIVYGYDANLRWVR are within error of each other in amyloid nucleation score: -0.518 ± 0.43 for the first, 0.262 ± 0.43 for the second.

NGSVTNNKNHPFVDYGVRHE and NGSYCKQILSRYVCRGECLH are within error of each other in amyloid nucleation score: -0.468 ± 0.36 for the first, -1.85 ± 1.4 for the second.

First: NGTFVLDVRIRSRRSERPLG
Second: NGVLYFD
The amyloid nucleation score of the first is higher: 4.09 ± 0.06 for the first, 0.371 ± 0.57 for the second.

NGYEMVQVLTSFMAAMGVFW and NHSGSFKCGRIVSRYDD are within error of each other in amyloid nucleation score: 0.256 ± 0.84 for the first, -1.37 ± 0.95 for the second.

NICDFLIYVYYLRSVCDI and NIGIRI are within error of each other in amyloid nucleation score: -0.358 ± 0.41 for the first, 0.095 ± 0.39 for the second.

First: NIVNYFSCLKALNKFLHKMG
Second: NIWVLTYCLVYLSWSNHVF
The amyloid nucleation score of the first is higher: 0.609 ± 0.26 for the first, -0.709 ± 0.78 for the second.

Compared with NKDYMVVLTDFS, NKIGRGVVCSRLWTCCSCFM is higher in amyloid nucleation score: -0.326 ± 0.2 for the first, 8.554 ± 0.079 for the second.

NKIQQGYMSPYCNHSVFVSF and NKNCLELCLTHGMLNQL are within error of each other in amyloid nucleation score: -0.296 ± 0.65 for the first, 0.25 ± 0.36 for the second.

NLMEKRSLRAIRWIVRSWAG and NLMYAGIRLKGEICTNQVSF are within error of each other in amyloid nucleation score: 0.839 ± 0.62 for the first, 0.371 ± 0.16 for the second.

NLSSTEYAFNISDGEKRHED and NLSTCDE are within error of each other in amyloid nucleation score: 0.186 ± 0.9 for the first, 1.03 ± 0.58 for the second.

NLSVY and NLTDTKLRDNGKNPALADQV are within error of each other in amyloid nucleation score: -0.232 ± 0.74 for the first, -0.226 ± 0.26 for the second.

Going from NLVVQCADGVILSFWDHMVG to NLVYTTDT, the amyloid nucleation score falls from 2.43 ± 0.32 to 0.467 ± 0.41.

Substance NLWLPAWCGLYQCNTGHSGY has an amyloid nucleation score of 7.996 ± 0.043.

For MYCWY, the amyloid nucleation score was “inactive”.
With NDCKSQRSRNSMGCQ the amyloid nucleation score was “inactive”.
With NDDRFSLLCGRGRSGLSEWC the amyloid nucleation score was “inactive”.
In the case of NFKVQREKGF, the amyloid nucleation score is reported as “inactive”.
With NIISEN the amyloid nucleation score was “inactive”.
With NLENLCLMILRVPVSDVMQP the amyloid nucleation score was “inactive”.
